# Laboratory results from the supplement of paper PMC10724198.
# ± gives the standard deviation of the averaged measurements.
# Tested on: Saccharomyces cerevisiae
# Test: protein stability index of tFT-peptide fusion (C-terminal peptide) (PSI (0-1 scale)); higher = more stable (slower turnover)
# Conditions: genetic background: cdc34-1; temperature: 37 C
# Experimental: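 MPS profiling in S. cerevisiae of the tFT-X12 degron library: putative degron peptides plus stable controls, 12 aa, fused to the C-terminus of a sfGFP-mCherry timer. Cells are FACS-sorted into 8 mCherry/sfGFP bins and deep-sequenced. PSI runs from 0 (unstable) to 1 (stable). Backgrounds are wild type, das1Δ and doa10Δ at 30 °C, and wild type, das1Δ, cdc34-1 and cdc53-1 at 37 °C; 2-3 technical replicates each.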
# 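Further: PSI is a weighted mean of sequencing reads over stability bins, variants kept only with over 10 reads, mCherry proximal and sfGFP distal, peptide attached via GGGS linker.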
row,Sequence,protein stability index
1,SRRRRLVSKFLA,0.63 ± 0.043
2,SRRSIGAYLFVS,0.693 ± 0.053
3,SRSFWHAIVFLA,0.373 ± 0.043
4,SRWMWFDWLRRA,0.644 ± 0.027
5,SSCFLLFRVVWR,0.285 ± 0.01
6,SSFDFVVSLCIY,0.501 ± 0.044
7,STSSVMVFLRMC,0.5544 ± 0.0036
8,SVAGFFLLLLLS,0.3561 ± 0.0034
9,SVECLCLFVACR,0.1923 ± 0.00067
10,SVFGVRARFGSV,0.766 ± 0.0082
11,SVFVVVVLVFWY,0.221 ± 0.042
12,SVIAYTKPLWFR,0.4205 ± 0.0039
13,SVLRCPVILLAY,0.0423 ± 0.031
14,SVSFFSLCTSSL,0.511 ± 0.033
15,SWTAYSYQWVFF,0.407 ± 0.025
16,SWVSVLSELLAC,0.224 ± 0.014
17,SYCFCCCVLFWG,0.432 ± 0.019
18,SYFSVTLFFTVI,0.281 ± 0.015
19,SYRFFLFLAVFV,0.555 ± 0.014
20,SYVFCYICGVQS,0.607 ± 0.038
21,SYVRLDLFFFLG,0.517 ± 0.069
22,TGVPNPSVAVMC,0.639 ± 0.039
23,TIYGYEVTRKIG,0.645 ± 0.068
24,TLLAFLIYLCFL,0.496 ± 0.023
25,TPVIPLIRVRDC,0.59 ± 0.034
26,TTGLLPSAYIWS,0.758 ± 0.05

row,Sequence,protein stability index
1,TVWRRIRHACAH,0.597 ± 0.023
2,VAVYVGVGVSLG,0.454 ± 0.045
3,VAWFFFAYAFFM,0.361 ± 0.058
4,VCALHSAPLLIF,0.453 ± 0.029
5,VCLVLVVVWWSG,0.219 ± 0.0066
6,VCRGWCVVRYIL,0.593 ± 0.015
7,VCVFNLTLVGTH,0.421 ± 0.05
8,VFFFFSLVNFRV,0.546 ± 0.061
9,VFFLFLVFLTVV,0.198 ± 0.059
10,VFFRCVCCLSVF,0.388 ± 0.029
11,VFFVLIFLLFLF,0.438 ± 0.025
12,VFGSVAALRLLM,0.666 ± 0.048
13,VFLFSWYIFSVF,0.206 ± 0.0065
14,VFLRCRSLSMRV,0.475 ± 0.044
15,VFMTLHCITIYK,0.452 ± 0.016
16,VFSCFLFLVVLV,0.129 ± 0.048
17,VFVFLFVFLFLL,0.147 ± 0.03
18,VGCHISAFSDLI,0.699 ± 0.022
19,VGFIVCFFFSFG,0.334 ± 0.049
20,VGIVWELGCWMG,0.365 ± 0.052
21,VGTGVGEGGGVV,0.679 ± 0.029
22,VICVVLSKVFLF,0.483 ± 0.054
23,VIGFGEVWIRCV,0.358 ± 0.018
24,VILYCSNVAVCS,0.355 ± 0.048
25,VIVKSRTTLYIS,0.49 ± 0.015
26,VIWVLGALASWG,0.5892 ± 0.0018

row,Sequence,protein stability index
1,VKVIILYKIIEV,0.353 ± 0.045
2,VLAYFCYVVFVI,0.306 ± 0.01
3,VLCMSIFIVFGI,0.197 ± 0.031
4,VLLLLGGIVCVM,0.236 ± 0.01
5,VLLLRRPLLVFS,0.0781 ± 0.025
6,VLLVRIFLCWVC,0.178 ± 0.013
7,VLLYRIAPRLLH,0.597 ± 0.079
8,VLSLYWLIISRL,0.717 ± 0.04
9,VLVSVSLRVCMV,0.0542 ± 0.021
10,VLVVLRSEVSLS,0.286 ± 0.0038
11,VLVVVAFVALPR,0.264 ± 0.0083
12,VLWSCCGGVRVR,0.587 ± 0.014
13,VLWVYLFLFVIF,0.266 ± 0.04
14,VLYSRFPPPLIA,0.51169 ± 7.2e-05
15,VMWFVLVGLCIL,0.4219 ± 0.0041
16,VNTLCCVFRCNL,0.96 ± 0.0047
17,VPRGAALIFLCF,0.574 ± 0.043
18,VPRSLYSVLRLA,0.525 ± 0.062
19,VPSPWLIRSLMS,0.648 ± 0.024
20,VQLFCLRREMII,0.544 ± 0.025
21,VRELGVGGWRRQ,0.58 ± 0.08
22,VRLLLIFRLLVI,0.463 ± 0.0077
23,VRNYWKYVVIFP,0.624 ± 0.0047
24,VSCFIVSFWVFL,0.389 ± 0.0086
25,VSFEFSVLWTVF,0.548 ± 0.073
26,VSLCVVYGLVVG,0.337 ± 0.024

# Same assay, conditions: genetic background: cdc53-1; temperature: 37 C
row,Sequence,protein stability index
1,SRRRRLVSKFLA,0.7 ± 0.042
2,SRRSIGAYLFVS,0.761 ± 0.029
3,SRSFWHAIVFLA,0.589 ± 0.015
4,SRWMWFDWLRRA,0.736 ± 0.028
5,SSCFLLFRVVWR,0.321 ± 0.0088
6,SSFDFVVSLCIY,0.526 ± 0.052
7,STSSVMVFLRMC,0.681 ± 0.038
8,SVAGFFLLLLLS,0.397 ± 0.0096
9,SVECLCLFVACR,0.254 ± 0.0049
10,SVFGVRARFGSV,0.803 ± 0.013
11,SVFVVVVLVFWY,0.3 ± 0.039
12,SVIAYTKPLWFR,0.3736 ± 0.0027
13,SVLRCPVILLAY,0.0232 ± 0.0025
14,SVSFFSLCTSSL,0.596 ± 0.006
15,SWTAYSYQWVFF,0.57 ± 0.0072
16,SWVSVLSELLAC,0.249 ± 0.017
17,SYCFCCCVLFWG,0.517 ± 0.011
18,SYFSVTLFFTVI,0.383 ± 0.0059
19,SYRFFLFLAVFV,0.554 ± 0.048
20,SYVFCYICGVQS,0.592 ± 0.025
21,SYVRLDLFFFLG,0.591 ± 0.03
22,TGVPNPSVAVMC,0.623 ± 0.023
23,TIYGYEVTRKIG,0.78 ± 0.025
24,TLLAFLIYLCFL,0.515 ± 0.061
25,TPVIPLIRVRDC,0.701 ± 0.012
26,TTGLLPSAYIWS,0.753 ± 0.024

row,Sequence,protein stability index
1,TVWRRIRHACAH,0.683 ± 0.0099
2,VAVYVGVGVSLG,0.523 ± 0.048
3,VAWFFFAYAFFM,0.451 ± 0.015
4,VCALHSAPLLIF,0.484 ± 0.017
5,VCLVLVVVWWSG,0.277 ± 0.028
6,VCRGWCVVRYIL,0.699 ± 0.0099
7,VCVFNLTLVGTH,0.462 ± 0.018
8,VFFFFSLVNFRV,0.574 ± 0.041
9,VFFLFLVFLTVV,0.164 ± 0.017
10,VFFRCVCCLSVF,0.408 ± 0.042
11,VFFVLIFLLFLF,0.448 ± 0.03
12,VFGSVAALRLLM,0.73216 ± 0.00032
13,VFLFSWYIFSVF,0.341 ± 0.071
14,VFLRCRSLSMRV,0.519 ± 0.014
15,VFMTLHCITIYK,0.537 ± 0.068
16,VFSCFLFLVVLV,0.104 ± 0.011
17,VFVFLFVFLFLL,0.138 ± 0.041
18,VGCHISAFSDLI,0.744 ± 0.043
19,VGFIVCFFFSFG,0.456 ± 0.0062
20,VGIVWELGCWMG,0.49 ± 0.03
21,VGTGVGEGGGVV,0.72922 ± 0.00013
22,VICVVLSKVFLF,0.5728 ± 0.0027
23,VIGFGEVWIRCV,0.57 ± 0.058
24,VILYCSNVAVCS,0.42 ± 0.013
25,VIVKSRTTLYIS,0.616 ± 0.0078
26,VIWVLGALASWG,0.6304 ± 0.0041

row,Sequence,protein stability index
1,VKVIILYKIIEV,0.494 ± 0.044
2,VLAYFCYVVFVI,0.343 ± 0.0056
3,VLCMSIFIVFGI,0.287 ± 0.023
4,VLLLLGGIVCVM,0.227 ± 0.018
5,VLLLRRPLLVFS,0.105 ± 0.037
6,VLLVRIFLCWVC,0.256 ± 0.049
7,VLLYRIAPRLLH,0.6841 ± 0.0027
8,VLSLYWLIISRL,0.736 ± 0.0093
9,VLVSVSLRVCMV,0.101 ± 0.025
10,VLVVLRSEVSLS,0.398 ± 0.022
11,VLVVVAFVALPR,0.41 ± 0.053
12,VLWSCCGGVRVR,0.629 ± 0.013
13,VLWVYLFLFVIF,0.291 ± 0.033
14,VLYSRFPPPLIA,0.537 ± 0.0073
15,VMWFVLVGLCIL,0.449 ± 0.035
16,VNTLCCVFRCNL,0.9524 ± 0.0023
17,VPRGAALIFLCF,0.646 ± 0.025
18,VPRSLYSVLRLA,0.685 ± 0.026
19,VPSPWLIRSLMS,0.687 ± 0.019
20,VQLFCLRREMII,0.609 ± 0.009
21,VRELGVGGWRRQ,0.7 ± 0.0064
22,VRLLLIFRLLVI,0.539 ± 0.013
23,VRNYWKYVVIFP,0.711 ± 0.023
24,VSCFIVSFWVFL,0.461 ± 0.033
25,VSFEFSVLWTVF,0.592 ± 0.028
26,VSLCVVYGLVVG,0.377 ± 0.022
